The values that follow come from US20240034786A1 (WUXI BIOLOGICS IRELAND, published 2024).

The target in assay [1] is T1, WBP319-hPro2.ECD.His (R&D) (human, UniProt P12830 155-709).
T1 construct: extracellular domain; Bought protein; also called human E-Cadherin.ECD.His; Human E-Cadherin
T1 sequence (looked up): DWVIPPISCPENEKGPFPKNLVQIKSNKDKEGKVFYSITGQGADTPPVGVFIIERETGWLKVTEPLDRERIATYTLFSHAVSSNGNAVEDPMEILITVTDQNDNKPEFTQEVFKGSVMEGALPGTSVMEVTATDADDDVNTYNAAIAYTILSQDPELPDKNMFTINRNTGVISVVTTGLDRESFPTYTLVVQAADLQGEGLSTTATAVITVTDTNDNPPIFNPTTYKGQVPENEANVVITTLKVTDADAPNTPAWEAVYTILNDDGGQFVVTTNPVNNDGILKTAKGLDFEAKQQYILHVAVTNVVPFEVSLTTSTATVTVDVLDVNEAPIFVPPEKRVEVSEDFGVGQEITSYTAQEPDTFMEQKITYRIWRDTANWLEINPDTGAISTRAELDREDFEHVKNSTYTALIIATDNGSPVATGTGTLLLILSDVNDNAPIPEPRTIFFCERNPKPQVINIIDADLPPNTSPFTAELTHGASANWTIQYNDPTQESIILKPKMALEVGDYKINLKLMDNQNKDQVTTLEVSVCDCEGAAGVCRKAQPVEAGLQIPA
As to the kind of experiment: capture ELISA, antigen held by anti-His antibody. How it is done: (§1) The binding of the antibodies to human E-Cadherin.ECD.His (R&D-8505-NC-050, WBP319-hPro2.ECD.His (R&D)) and human N-Cadherin.ECD.His (R&D-1388-NC-050, WBP319-hPro3.ECD.hFcHis (R&D)) were tested by a captured protein binding ELISA. 96-well high protein binding ELISA plates (Nunc MaxiSorp, ThermoFisher, Cat #: 442404) were coated overnight at 4° C. with 1 μg/mL capture antibody (THETM His Tag mAb, GenScript, Cat #: A00186) in Carbonate-bicarbonate buffer (20 mM Na2CO3, 180 mM NaHCO3, pH=9.2). All wells were washed three time with 300 μL per well of PBS/0.5‰ Tween-20 (v/v) and all the following wash steps in the assay were performed the same. The wells were then blocked for one hour with 3% milk (Shanghai Dingguo-DH220)/1×PBS (Ca+/Mg+) (Gibco, #14040-117) and washed three times, followed by binding of 1 μg/mL antigens in 3% milk/1×PBS (Ca+/Mg+) for 1 hour at room temperature and three washes afterwards. […]
(§2) For the binding detection, 100 μL Tetramethylbenzidine (TMB) Substrate solution (Invitrogen, Cat #: 002023) was added to all wells for 10 minutes before stopping the reaction with 100 μL 2M HCl. The extent of the testing Abs binding to WBP319-hPro2.ECD.His (R&D)) and WBP319-hPro3.ECD.hFcHis (R&D) were determined by measuring the OD450 absorbance using the SpectraMax® M5e microplate reader. […]
A general note: An ELISA detects its analyte on a solid surface through an enzyme-linked reagent.

Assay [2] has as its target T2, WBP319-hPro3.ECD.hFcHis (R&D) (human, UniProt P19022 160-724).
T2 construct: extracellular domain; Bought protein; the text calls it ECD.His, the code says hFcHis; also called human N-Cadherin.ECD.His; Human N-Cadherin; not shown: human Fc and His tag by the code hFcHis
T2 sequence (looked up): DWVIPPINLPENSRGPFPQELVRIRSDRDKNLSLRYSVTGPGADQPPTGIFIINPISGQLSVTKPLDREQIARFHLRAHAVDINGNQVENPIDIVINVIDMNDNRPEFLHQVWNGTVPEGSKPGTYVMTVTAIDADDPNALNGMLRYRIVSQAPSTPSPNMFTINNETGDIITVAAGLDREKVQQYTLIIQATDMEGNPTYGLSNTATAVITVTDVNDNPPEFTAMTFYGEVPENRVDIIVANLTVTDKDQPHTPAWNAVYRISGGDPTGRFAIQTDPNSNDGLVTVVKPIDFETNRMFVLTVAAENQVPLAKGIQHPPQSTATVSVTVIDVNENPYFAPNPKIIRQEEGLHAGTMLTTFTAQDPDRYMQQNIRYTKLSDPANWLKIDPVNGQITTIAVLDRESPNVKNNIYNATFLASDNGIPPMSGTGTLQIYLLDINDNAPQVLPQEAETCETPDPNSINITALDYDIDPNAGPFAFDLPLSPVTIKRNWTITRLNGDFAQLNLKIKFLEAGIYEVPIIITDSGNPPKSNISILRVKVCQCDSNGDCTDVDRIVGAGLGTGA
In words: capture ELISA, antigen held by anti-His antibody. How it is done: as §1, §2

B1: W3195-1.53.1-p1-uIgG1L (antibody)
heavy: not shown
light: SYELTQPPSVSVSPGQTAQITCSGDKLGDKFASWYQQKSGQSPVVVIYQDNKRPSGFPERFSGSNSGNTATLTISGTQAMDEADYYCQAWDSSIVVFGGGTKLTVLGQPKAAPSVTLFPPSSEELQANKATLVCLISDFYPGAVTVAWKADSSPVKAGVETTTPSKQSNNKYAASSYLSLTPEQWKSHRSYSCQVTHEGSTVEKTVAPTECS
notes: also called W3195-p1 antibody
Usually EC50 stands for the concentration that produces a half-maximal response. For B1, the half-maximal effective concentration (EC50) in assay [1] and in assay [2] was over 100 nM in each case.
